In patent US20240309081A1 (QYUNS THERAPEUTICS, published 2024):

T1: human interleukin-33 (hIL-33) (human, UniProt O95760 112-270)
T1 construct: The immunogen was bought from Novoprotein; also called recombinant human interleukin-33
T1 sequence: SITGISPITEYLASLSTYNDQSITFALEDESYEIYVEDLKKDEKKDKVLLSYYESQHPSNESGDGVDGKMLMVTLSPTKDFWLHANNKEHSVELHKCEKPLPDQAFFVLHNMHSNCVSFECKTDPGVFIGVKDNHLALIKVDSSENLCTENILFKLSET

T2: natural human interleukin-33 (human) (UniProt O95760)
T2 sequence (looked up): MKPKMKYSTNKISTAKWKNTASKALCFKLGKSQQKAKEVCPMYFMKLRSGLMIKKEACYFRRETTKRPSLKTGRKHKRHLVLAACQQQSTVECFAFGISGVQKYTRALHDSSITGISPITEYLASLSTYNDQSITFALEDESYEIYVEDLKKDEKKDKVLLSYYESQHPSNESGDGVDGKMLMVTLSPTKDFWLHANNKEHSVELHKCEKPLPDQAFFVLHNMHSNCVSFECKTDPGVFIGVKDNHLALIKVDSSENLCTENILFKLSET

T3: interleukin-33 of rhesus monkeys (rhesus monkey, UniProt F7DLG4 112-269)
T3 construct: also called rhesus monkey IL-33
T3 sequence: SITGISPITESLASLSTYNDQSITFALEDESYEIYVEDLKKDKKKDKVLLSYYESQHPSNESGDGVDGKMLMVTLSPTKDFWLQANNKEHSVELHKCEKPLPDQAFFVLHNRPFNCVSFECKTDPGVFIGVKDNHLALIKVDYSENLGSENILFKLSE

B1: Etokimab/ANB020 (antibody, INN chains, looked up, V domains shown)
VH: QVQLMQSGAEVKKPGASVKVSCKASGYTFTSYWMHWVRQAPGQGLEWMGTIYPRNSNTDYNQKFKARVTMTRDTSTSTVYMELSSLRSEDTAVYYCARPLYYYLTSPPTLFWGQGTLVTVSS
VL: DIQLTQSPSFLSASVGDRVTITCKASQDVGTAVAWYQQKPGKAPKLLIYWASTRHTGVPSRFSGSGSGTEFTLTISSLQPEDFATYYCQQAKTYPFTFGSGTKLEIK
B2: QX007N (HZD78-70) (antibody, human IgG1, kappa, V domains shown)
VH: EVQLVESGGGLVQPGGSLRLSCAASGFSLSSYHMIWVRQAPGKGLEWVGVIYPNSNIYYATWAKGRFTISRDNSKNTLYLQMNSLRAEDTAVYYCARTIYVHVYSALSIWGQGTLVTVSS
VL: AFQMTQSPSSVSASVGDRVTITCQASESVLNEVSWYQQKPGKAPKLLIYFASKLASGVPSRFSGSGSGTDFTLTISSLQPEDFATYYCQQDWSMDNIDNAFGGGTKVEIKR
notes: Humanized rabbit antibody, expressed in ExpiCHO-S cells and purified with Protein A; also called humanized 78#

Key:
[1] = target: T1, human interleukin-33 (hIL-33); test: cell-based or functional assay
[2] = target: T2, natural human interleukin-33 (human); test: cell-based or functional assay
[3] = target: T1, human interleukin-33 (hIL-33); test: SPR (Biacore T200, 25 C), antibody captured on Protein A chip, antigen as analyte, 1:1 model
Protocol: Commercialized Protein A chip was used to immobilize an appropriate amount of antibody by capture method, so that the Rmax was about 50 RU, and the capture flow rate was 10 μl/min. The antigen was diluted by gradient, the flow rate of the instrument was switched to 30 μl/min, and the antigen flowed through the reference channel and the channel of the immobilized antibody in order of concentration from low to high, and the buffer was used as a negative control. After each binding and dissociation, the chip was regenerated with glycine at pH 1.5. The 1:1 binding model in Kinetics option was selected for fitting using the analysis software that comes with the instrument, and the binding rate constant kₐ, the dissociation rate constant kd and the equilibrium dissociation constant KD value of the antibody were calculated.
In addition, the affinity of QX007N (HZD78-70) and Etokimab/ANB020, a monoclonal antibody against human interleukin-33 developed by AnaptysBio were compared, and the detection method for known antibodies was the same as that for QX007N. Particularly, Etokimab/ANB020 was self-made by constructing an expression plasmid according to the APE4909 sequence provided by the patent WO2015106080A2, and transiently transfecting ExpiCHO-S cells.

[4] = target: T3, interleukin-33 of rhesus monkeys; test: SPR (Biacore T200), antibody captured on Protein A chip

Row | Binder | inhibition of NF-KB/AP-1 signal transduction in HEK Blue IL-33 cells induced by recombinant human interleukin-33 (SEAP, OD630nm) [1] [ng/mL] | neutralization of IFN-gamma release from human whole blood induced by recombinant human interleukin-33 [1] [ng/mL] | neutralization of IL-5 release from KU812 cells induced by recombinant human interleukin-33 (IL-5 ELISA) [1] [ng/mL] | inhibition of NF-KB/AP-1 signal transduction in HEK Blue IL-33 cells induced by natural human interleukin-33 (SEAP, OD630nm) [2] [ng/mL] | Kd [3] [nM] | koff [3] [s⁻¹] | kon [3] [M⁻¹ s⁻¹] | binding result [4]
1 | B1 | 6.05 | 31.9 | 44 | 2.5 | 0.869 | 0.000369 | 424000 | 
2 | B2 |  |  |  |  | 1.23 | 0.000481 | 392000 | no binding
